One series concerns the target T1, proPSA (Homo sapiens, UniProt P07288).
T1 construct: due to the altered folding in the zymogen form of PSA; made in house
Put plainly: Incubation of proPSA with lysyl endopeptidase C, cleavage followed by HIC-HPLC. The series is classed as biochemical. To be noted: recombinant pPSA (zymogen), 0.1% LysC in PBS pH 7. The method, then: (§1) High-performance hydrophobic interaction chromatography (HIC-HPLC) was performed using a polypropylaspartamide column (PolyLC, distributed by Western Analytical, Temecula, Calif.). The column was 4.6×250 mm in length with a 1000 Å pore size. Samples were applied in 1.5 M ammonium sulfate and eluted with a gradient. Buffers were prepared as follows. Buffer A consisted of 1.2 M sodium sulfate, 25 mM sodium phosphate, and a pH of 6.3, and Buffer B consisted of 50 mM sodium phosphate and 5% v/v 2-propanol. The gradient was 0-30% B for 1 minute, 30-60% B 10 minutes, followed by re-equilibration in Buffer A. High-sensitivity peak detection was obtained with a Varian Model 9070 (Varian Medical Systems, Palo Alto, Calif.) scanning fluorescence detector using an excitation of 232 nm and an emission of 334 nm to detect the tryptophan residues in protein.
Samples of PSA and proPSA were incubated with 0.1% lysyl endopeptidase C (Wako Cemicals USA, Richmond, Va.) in PBS at pH 7 for the times indicated in the figures. […] The internal cleavage sites of the different HIC-HPLC peaks were determined by N-terminal sequencing.
ProPSA (pPSA) was also incubated with LysC to determine if there was any difference between the cleavage of the Lys145 and Lys182 sites due to the altered folding in the zymogen form of PSA. […] The cleavage of the Lys182 and Lys145 sites in pPSA was also monitored by HIC-HPLC. […]

In another series the target is T2, PSA (Homo sapiens, UniProt P07288).
T2 construct: Unlike the purified mature PSA, pPSA was isolated from a recombinant expression system; from tissue; host or cells: seminal plasma
Put plainly: Incubation of PSA with lysyl endopeptidase C, cleavage followed by HIC-HPLC and N-terminal sequencing. The series is classed as biochemical. The method, then: as §1
N-terminal sequence analysis of the samples was performed on a PE-Applied Biosystems Model 492 amino acid sequencer (PE-Applied Biosystems, Foster City, Calif.). Purified PSA and peaks collected by HIC-HPLC were applied directly to Prosorb cartridges (PE-Applied Biosystems, Foster City, Calif.), washed three times with 0.1 ml 0.01% trifluoroacetic acid, and applied to the sequencer.
Samples of PSA and proPSA were incubated with 0.1% lysyl endopeptidase C (Wako Cemicals USA, Richmond, Va.) in PBS at pH 7 for the times indicated in the figures. The LysC reaction was quenched by the addition of a 10-fold molar excess of aprotinin prior to analysis by HIC-HPLC. The internal cleavage sites of the different HIC-HPLC peaks were determined by N-terminal sequencing.
We also examined the digestion of PSA with LysC in vitro to determine the relative susceptibility of the Lys145 and Lys182 sites.

T2 sequence (P07288 25-261): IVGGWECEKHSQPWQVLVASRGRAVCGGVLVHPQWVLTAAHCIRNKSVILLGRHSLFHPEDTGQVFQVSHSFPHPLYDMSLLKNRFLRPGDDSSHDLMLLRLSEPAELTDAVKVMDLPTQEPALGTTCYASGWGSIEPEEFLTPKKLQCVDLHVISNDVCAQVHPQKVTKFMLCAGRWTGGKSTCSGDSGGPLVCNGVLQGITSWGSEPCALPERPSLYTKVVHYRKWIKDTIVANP
T1 sequence (P07288 18-261 limits assumed): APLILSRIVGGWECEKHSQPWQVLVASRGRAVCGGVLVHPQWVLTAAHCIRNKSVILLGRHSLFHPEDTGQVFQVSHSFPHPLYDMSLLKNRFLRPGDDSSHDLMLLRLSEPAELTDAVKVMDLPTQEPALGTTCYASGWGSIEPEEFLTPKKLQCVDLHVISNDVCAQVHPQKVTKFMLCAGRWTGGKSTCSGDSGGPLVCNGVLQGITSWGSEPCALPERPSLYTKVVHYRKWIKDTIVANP

B1: LysC: lysyl endopeptidase C (Wako), commercial protease with wide specificity for lysine residues, used to cleave PSA in vitro (protein)
chain: GVSGSCNIDVVCPEGDGRRDIIRAVGAYSKSGTLACTGSLVNNTANDRKMYFLTAHHCGMGTASTAASIVVYWNYQNSTCRAPNTPASGANGDGSMSQTQSGSTVKATYATSDFTLLELNNAANPAFNLFWAGWDRRDQNYPGAIAIHHPNVAEKRISNSTSPTSFVAWGGGAGTTHLNVQWQPSGGVTEPGSSGSPIYSPEKRVLGQLHGGPSSCSATGTNRSDQYGRVFTSWTGGGAAASRLSDWLDPASTGAQFIDGLDSGGGTP
B1: in the series with proPSA, the “initial rate of cleavage of the Lys182” value came out at 8 % per minute and the “rate of cleavage at Lys145” value was “about 0.6 % per minute”. The “Lys182 cleaved more rapidly than Lys145” value in the series with PSA (PSA digested with LysC in vitro) is given as “approximately 30 times”. Besides, in the series with PSA (after 30 minutes of incubation with LysC), the “PSA cleaved at Lys182” value was 100%. In the series with PSA (mature PSA purified from seminal plasma, 0.1% LysC in PBS pH 7), the “initial rate of cleavage at Lys182” value was determined as 12 % per minute. Further, the “rate of cleavage at Lys145” value in the series with PSA (mature PSA, 0.1% LysC in PBS pH 7, based on time points greater than 30 minutes) is recorded as 0.3 % per minute.

These data come from US20030166036A1, “Protease and an aminopeptidase associated with development of benign prostatic hyperplasia (BPH)” (priority 2001, published 2003).
